Measurements from patent US9938510B2, “Photobacterium sp. alpha-2-6-sialyltransferase variants” (The Regents of the University of California, priority 2014, dated 2018).
Substitutions are numbered along the chain they refer to. In names and notes the source's numbering stands.

B1: Psp26ST(15-501)-His6: recombinant Photobacterium sp. JH-ISH-224 α2-6-sialyltransferase, residues 15-501, C-terminal His6, wild-type; SEQ ID NO: 23 (protein)
chain: CNNSEENTQSIIKNDINKTIIDEEYVNLEPINQSNISFTKHSWVQTCGTQQLLTEQNKESISLSVVAPRLDDDEKYCFDFNGVSNKGEKYITKVTLNVVAPSLEVYVDHASLPTLQQLMDIIKSEEENPTAQRYIAWGRIVPTDEQMKELNITSFALINNHTPADLVQEIVKQAQTKHRLNVKLSSNTAHSFDNLVPILKELNSFNNVTVTNIDLYDDGSAEYVNLYNWRDTLNKTDNLKIGKDYLEDVINGINEDTSNTGTSSVYNWQKLYPANYHFLRKDYLTLEPSLHELRDYIGDSLKQMQWDGFKKFNSKQQELFLSIVNFDKQKLQNEYNSSNLPNFVFTGTTVWAGNHEREYYAKQQINVINNAINESSPHYLGNSYDLFFKGHPGGGIINTLIMQNYPSMVDIPSKISFEVLMMTDMLPDAVAGIASSLYFTIPAEKIKFIVFTSTETITDRETALRSPLVQVMIKLGIVKEENVLFWA
modifications: C-terminal His6; Synthetic Psp26ST(15-501) WILD TYPE
B2: A366G: Photobacterium sp. JH-ISH-224 α2-6-sialyltransferase residues 15-501, A366G point mutation, C-terminal His6; SEQ ID NO: 2 (protein)
chain: B1 chain with A352G
modifications: C-terminal His6; Synthetic Psp26ST(15-501) A366G

Legend:
[1] = Kinetics of CMP-Neu5Ac donor hydrolysis activity (capillary electrophoresis); format: biochemical
Experimental: Procedure for Kinetic Analysis of Donor Hydrolysis by His6-Pd2,6ST(16-497), Psp26ST(15-501)-His6 and its A235D and A366G Mutants
The kinetics study for the donor hydrolysis activity of His6-Pd2,6ST(16-497) was carried out at 37° C. for 20 min in Tris-HCl buffer (200 mM, pH 8.0). The kinetics study for the donor hydrolysis activities of Psp26ST(15-501)-His6 and its A235D mutant was carried out at 20° C. for 10 min in Tris-HCl buffer (200 mM, pH 8.0). All reactions were performed in duplicate in a total volume of 10 μL containing varied concentrations of CMP-Neu5Ac (10, 20, 40, 60, 80 and 100 mM) and the enzyme (6 μM). Reactions were stopped by adding 10 μL of ethanol and then centrifuged. The supernatants were analyzed by a P/ACETM capillary electrophoresis (CE) system equipped with a photodiode array (PDA) detector (Beckman Coulter, Inc., Fullerton, Calif.). CE conditions were as follows: 75 μm i.d. capillary, 25 KV/80μÅ, 5 s vacuum injections, monitored at 200 nm and 254 nm, the running buffer used was sodium tetraborate (25 mM, pH 9.4). Apparent kinetic parameters were obtained by fitting the experimental data (the average values of duplicate assay results) into the Michaelis-Menten equation using Grafit 5.0.

[2] = Sialylation assay with periodic addition of CMP-Neu5Ac; format: biochemical
Experimental: Two reactions were set up at 20° C. in MES buffer (200 mM, pH 5.0) containing Psp2,6ST(15-501)-His6 (6.0 μM), CMP-Neu5Ac (1 mM), and GalNAcα2AA (1 mM) in a total volume of 50 μL. One of the reactions was used as a control and was incubated for 4 h. The other was incubated for 1 h, 2 equivalents of CMP-Neu5Ac was then added. The same dose was added every hour for up to 4 h reaction duration. Aliquots (2 μL each) were withdrawn and the reactions were stopped by adding 10 μL of cold ethanol followed by centrifugation. The samples were diluted and kept on ice until aliquots of 8 μL were injected and analyzed by a Shimadzu LC-6AD system equipped with a membrane on-line degasser, a temperature control unit, and a fluorescence detector (Shimadzu RF-10AXL). A reverse-phase Premier C18 column (250×4.6 mm i.e., 5 μm particle size, Shimadzu) protected with a C18 guard column cartridge was used. The mobile phase was 25% acetonitrile in water. The 2-aminobenzoic acid (2AA)-labeled fluorescent acceptor and the product formed were detected with excitation at 315 nm and emission at 400 nm.

[3] = earlier reports (Ding 2011; Sun 2008); cited from earlier work
[4] = Apparent sialyltransferase kinetics, GalNAcα2AA as acceptor; format: biochemical
Experimental: (§1) Reactions were carried out in duplicate at 20° C. for 20 minutes in a total volume of 10 μL in a proper buffer at the optimal pH according to the pH profile of the wild-type enzyme (see, Ding, 2011, supra). When LacβMU was used as an acceptor, the conditions were: Tris-HCl buffer (200 mM, pH 8.0), enzyme (0.3 μM), varied concentrations of LacβMU (0.1, 0.25, 0.4, 1.0, 2.0, 4.0, and 6.0 mM) with a fixed concentration of CMP-Neu5Ac (1.0 mM) or varied concentrations of CMP-Neu5Ac (0.1, 0.25, 0.4, 1.0, 2.0, 4.0, and 6.0 mM) with a fixed concentration of LacβMU (1.0 mM). When GalNAcα2AA was used as an acceptor, the conditions were: NaOAc-HOAc buffer (200 mM, pH 5.0), enzyme (6 μM), varied concentrations of GalNAcα2AA (0.5, 0.8, 1.0, 2.0, 4.0, 8.0, and 10.0 mM) and a fixed concentration of CMP-Neu5Ac (4.0 mM) or varied concentrations of CMP-Neu5Ac (0.5, 1.0, 2.0, 4.0, 5.0, 8.0, and 10.0 mM) with a fixed concentration of GalNAcα2AA (1.0 mM). When GalNAcαSer was used as an acceptor, the conditions were: Tris-HCl buffer (200 mM, pH 8.0), enzyme (0.6 μM), varied concentrations of GalNAcαSer (0.1, 0.25, 0.5, 1.0, 2.0, 4.0, 8.0, and 10.0 mM) and a fixed concentration of CMP-Neu5Ac (2.0 mM). […]

[5] = Apparent sialyltransferase kinetics, GalNAcαThr as acceptor; format: biochemical
Experimental: as §1

[6] = Sialyltransferase activity assays, statements not tied to one acceptor (LacβMU, GalNAcα2AA, GalNAcαSer, GalNAcαThr); format: biochemical; settings: α-linked N-acetyl galactosaminides, especially GalNAcα2AA or GalNAcαThr, as acceptor
Experimental: When LacβMU was used as an acceptor, the assay was performed in duplicate in 10 μL of Tris-HCl buffer (100 mM, pH 8.0) containing CMP-Neu5Ac (1 mM), LacβMU (1 mM), MgCl2 (20 mM), wild-type Psp2,6ST(15-501)-His6 or its mutant (0.3 μM). When an α-GalNAc-terminated acceptor was used, the assay was performed in duplicate in 10 μL of Tris-HCl buffer (100 mM, pH 8.0 for GalNAcαSer/Thr) or NaOAc-HOAc (100 mM, pH 5.0 for GalNAcα2AA) containing CMP-Neu5Ac (1.5 mM), the acceptor (1 mM), MgCl2 (20 mM), wild-type Psp2,6ST(15-501)-His6 or its mutant (3.0 μM). Reactions were allowed to proceed at 20° C. for 20 min and stopped by adding 10 μL of cold ethanol. The analysis of sialylated product conversion was performed using the HPLC system as described above for sialyltransferase activity assay. The 4-methylumbelliferone (MU)-labeled fluorescent acceptor and the product formed were detected with excitation at 325 nm and emission at 372 nm. The 2-aminobenzoic acid (2AA)-labeled fluorescent acceptors and the products formed were detected with excitation at 315 nm and emission at 400 nm. The 9-fluorenylmethylcarbamate (Fmoc)-labeled fluorescent acceptors and the products formed were detected with excitation at 262 nm and emission at 313 nm.

Row | Molecule | CMP-Neu5Ac hydrolysis efficiency relative to sialyltransferase activity (more efficient) ([1]; versus kcat/Km with GalNAcα2AA as acceptor) | CMP-Neu5Ac hydrolysis efficiency relative to sialyltransferase activity (lower) ([1]; versus kcat/Km with LacβMU as acceptor) [fold] | sialylation yield ([2]; after an additional two equivalents of CMP-Neu5Ac, in 15 min) [%] | sialylation yield ([2]; after the fourth dose (2 equivalents) of CMP-Neu5Ac) [%] | sialylation yield ([2]; after the third dose (2 equivalents) of CMP-Neu5Ac) [%] | sialylated product Neu5Acα2-6GalNAcα2AA formed ([2]; one equivalent of CMP-Neu5Ac, MES pH 5.0, 20° C., enzyme 6.0 μM, GalNAcα2AA 1 mM) [%] | expression level of soluble protein [3] [mg/L] | catalytic efficiency (kcat/Km) higher than the wild-type enzyme [4] [fold] | catalytic efficiency (kcat/Km) higher than the wild-type enzyme [5] [fold] | sialyltransferase activity compared to wild-type [6]
1 | B1 | about 14 fold | 13 | 17 | 33 | 25 | 7.3 | 25 | – | – | –
2 | B2 | – | – | – | – | – | – | – | 1.3 | 2.1 | improved sialyltransferase activity
